As a reminder, the Kd is the constant that tells how readily two partners part at equilibrium. What is called koff is a measure of how fast the partners let go of each other. A word on the kon: it is the second-order rate constant of association. Broadly, the IC50 is the concentration that inhibits the measured activity by half.

The text below walks through data of patent US20140178935A1 (AVEO PHARMACEUTICALS, published 2014).

In experiment [1] the target is T1, recombinant human HGF (R&D Systems, Catalog No. 294-HGN-025) (human, UniProt P14210 32-728). Kind of experiment: cell-based or functional assay.
T1 sequence (P14210 32-728 limits assumed): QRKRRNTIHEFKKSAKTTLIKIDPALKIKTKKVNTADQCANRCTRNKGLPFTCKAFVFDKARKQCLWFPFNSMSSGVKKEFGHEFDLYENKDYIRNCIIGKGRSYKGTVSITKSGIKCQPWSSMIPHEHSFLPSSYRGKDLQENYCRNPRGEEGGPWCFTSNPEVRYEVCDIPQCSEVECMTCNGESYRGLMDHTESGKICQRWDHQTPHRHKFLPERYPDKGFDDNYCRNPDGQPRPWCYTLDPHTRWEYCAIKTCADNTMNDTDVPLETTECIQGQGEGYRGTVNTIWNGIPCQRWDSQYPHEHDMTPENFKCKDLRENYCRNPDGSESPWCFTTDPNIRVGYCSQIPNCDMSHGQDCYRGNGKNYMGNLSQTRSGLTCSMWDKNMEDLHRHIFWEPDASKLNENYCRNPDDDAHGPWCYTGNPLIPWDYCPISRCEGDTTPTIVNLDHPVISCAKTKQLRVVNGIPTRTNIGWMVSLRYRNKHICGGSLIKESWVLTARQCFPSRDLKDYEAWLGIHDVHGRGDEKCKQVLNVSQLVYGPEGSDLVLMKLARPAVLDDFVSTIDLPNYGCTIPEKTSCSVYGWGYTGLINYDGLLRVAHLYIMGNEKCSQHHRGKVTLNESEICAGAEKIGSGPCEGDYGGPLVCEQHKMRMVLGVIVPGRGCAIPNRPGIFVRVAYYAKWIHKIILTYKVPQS
Experiment [2] has as its target T1, recombinant human HGF (R&D Systems, …). Kind of experiment: SPR, captured antibody, HGF injected, 25 C. The procedure: Mouse anti-human immunoglobulins (Jackson Labs, Catalog No. 209-005) were immobilized on carboxymethylated dextran CM4 sensor chips (BIAcore, Catalog No. BR-1006-68) by amine coupling (BIAcore, Catalog No. BR-1000-50) using a standard coupling protocol according to manufacturer's instructions. The analyses were performed at 25° C. using PBS (GIBCO, Catalog No. 14040-133) containing 0.05% surfactant P20 (BIAcore, Catalog No. BR-1000-54), and 2 mg/mL BSA (EMD, Catalog No. 2930).
(§1) The antibodies were captured in an individual flow cell at a flow rate of 10 μL/min. Injection time was variable for each antibody to yield approximately 20 RU of antibody captured for each cycle. […] The dissociation phase was monitored for 15 or 90 minutes, depending on concentration. The surface then was regenerated with 10 mM Glycine-HCl, pH 2.2 (BIAcore, Catalog No. BR-1003-54) injected for 3 minutes at a flow rate of 60 μL/min before another cycle was initiated.
Kinetic parameters were determined using the kinetic function of the BIAevalutation™ software with reference subtraction.

Experiment [3] has the same target. Kind of experiment: SPR, captured antibody, HGF injected, 25 C. The procedure:
(§2) Mouse anti-human immunoglobulins (Jackson Labs, Catalog No. 209-005) or rabbit anti-mouse immunoglobulins (BIAcore, Catalog No. BR-1005-14) were immobilized on carboxymethylated dextran CM4 sensor chips (BIAcore, Catalog No. BR-1006-68) by amine coupling (BIAcore, Catalog No. BR-1000-50) using a standard coupling protocol according to manufacturer's instructions. […] The analyses were performed at 25° C. and 37° C. using PBS (GIBCO, Catalog No. 14040-133) containing 0.05% surfactant P20 (BIAcore, Catalog No. BR-1000-54), and 2 mg/mL BSA (EMD, Catalog No. 2930) as running buffer.
as §1, with “[…].” for “μL/min.”, “surface of mouse anti-human immunoglobulins sensor chips was” for “surface”, “then” for “then was”, “initiated. The surface of rabbit anti-mouse immunoglobulins sensor chips was regenerated with 10 mM Glycine-HCl, pH 1.7 (BIAcore, Catalog No. BR-1003-54) injected for 3 minutes at a flow rate of 60 μL/min before another cycle was initiated.” for “initiated.”
(§3) Kinetic parameters were determined using the kinetic function of the BIAevaluation software with reference subtraction.
This is another data set of the same source. For orientation: In SPR one partner is held on a chip, and binding of the other changes the refractive index at the surface.

For experiment [4] the target is unchanged. Kind of experiment: SPR, captured antibody, HGF injected, 37 C. The procedure: as §2
as §1, with “[…].” for “μL/min.”, “surface of mouse anti-human immunoglobulins sensor chips was” for “surface”, “then” for “then was”, “initiated. The surface of rabbit anti-mouse immunoglobulins sensor chips was regenerated with 10 mM Glycine-HCl, pH 1.7 (BIAcore, Catalog No. BR-1003-54) injected for 3 minutes at a flow rate of 60 μL/min before another cycle was initiated.” for “initiated.”
as §3

For experiment [5] the target is unchanged. Kind of experiment: competition ELISA (DELFIA): antibody inhibits biotinylated c-Met binding to plate-coated HGF. The procedure:
The plates then were blocked with 200 μL of 5% non-fat dry milk in PBS for 1 hour at room temperature. […] 100 μL of sample per well was transferred to the assay plate and incubated for 2 hours at room temperature. The resulting plates were washed three times with PBS-0.1% Tween 20, and incubated for 1 hour at room temperature with Eu-labeled Streptavidin (Wallac, Catalog No. 1244-360) diluted 1:1000 in DELFIA assay buffer (Wallac, Catalog No. 4002-0010). The resulting plates were washed 3 times with DELFIA wash solution (Wallac, Catalog No. 4010-0010) and incubated with 100 μL/well DELFIA enhancement solution (Wallac #4001-0010) for 15 minutes at room temperature with agitation. The plates were read on Victor³V instrument (Perkin Elmer) using the Europium method. The IC₅₀ values were calculated using Prism.

B1: HE2B8-4 (LRMR2B8HC + IgG1 constant region G1m(3) allotype allele 1, plus LRMR2B8LC + Kappa constant region Km(3) allotype allele 1) (antibody, V domains shown)
VH: QVQLVQPGAEVKKPGTSVKLSCKASGYTFTTYWMHWVRQAPGQGLEWIGEINPTNGHTNYNQKFQGRATLTVDKSTSTAYMELSSLRSEDTAVYYCARNYVGSIFDYWGQGTLLTVSS
VL: DIVMTQSPDSLAMSLGERVTLNCKASENVVSYVSWYQQKPGQSPKLLIYGASNRESGVPDRFSGSGSATDFTLTISSVQAEDVADYHCGQSYNYPYTFGQGTKLEIKR
notes: Human Engineered 2B8 variant, human IgG1 kappa, made in HEK293E cells
As to B1, in experiment [1], the “IC50, neutralization of HGF stimulated BrdU incorporation in 4 MBr-5 cells” value was 0.58 nM. Further, in experiment [2], the Kd worked out at 0.0065 nM, the koff is 1.1e-05 s⁻¹ and the kon is 1.7e+06 M⁻¹ s⁻¹. Moreover, in experiment [3], the Kd stood at 0.0056 nM, the off-rate (koff) is 1.2e-05 s⁻¹ and the kon stood at 2e+06 M⁻¹ s⁻¹. Also, in experiment [4], the Kd came to 0.0033 nM, the off-rate constant (koff) came to 1e-05 s⁻¹ and the kon is 3.1e+06 M⁻¹ s⁻¹. Further, the concentration for half-maximal inhibition (IC50) in experiment [5] stood at 6.5 nM.

B2: anti-hHGF monoclonal antibody 2B8 (antibody, mouse IgG1, kappa)
heavy: QVQLQQPGAELVKPGTSVKLSCKASGYTFTTYWMHWVNQRPGQGLEWIGEINPTNGHTNYNEKFKSKATLTVDKSSSTAYMQLSSLTSEDSAVYYCARNYVGSIFDYWGQGTTLTVSSAKTTPPSVYPLAPGSAAQTNSMVTLGCLVKGYFPEPVTVTWNSGSLSSGVHTFPAVLQSDLYTLSSSVTVPSSTWPSETVTCNVAHPASSTKVDKKIVPRDCGCKPCICTVPEVSSVFIFPPKPKDVLTITLTPKVTCVVVDISKDDPEVQFSWFVDDVEVHTAQTQPREEQFNSTFRSVSELPIMHQDWLNGKEFKCRVNSAAFPAPIEKTISKTKGRPKAPQVYTIPPPKEQMAKDKVSLTCMITDFFPEDITVEWQWNGQPAENYKNTQPIMDTDGSYFVYSKLNVQKSNWEAGNTFTCSVLHEGLHNHHTEKSLSHSPGK
light: NIVMTQSPKSMSMSVGERVTLSCKASENVVSYVSWYQQKPAQSPKLLIYGASNRNTGVPDRFTGSGSATDFTLTISSVRAEDLADYHCGQSYNYPYTFGGGTRLEIKRADAAPTVSIFPPSSEQLTSGGASVVCFLNNFYPKDINVKWKIDGSERQNGVLNSWTDQDSKDSTYSMSSTLTLTKDEYERHNSYTCEATHKTSTSPIVKSFNRNEC
notes: Murine IgG1 kappa from hybridoma; also called murine 2B8; mouse 2B8
On to B2, for which the “IC50, neutralization of HGF stimulated BrdU incorporation in 4 MBr-5 cells” value in experiment [1] was 0.86 nM. In experiment [2], the Kd is 0.0073 nM, the koff came out at 1e-05 s⁻¹ and the kon amounted to 1.4e+06 M⁻¹ s⁻¹. For the same molecule, in experiment [3], the Kd amounted to 0.0135 nM, the koff worked out at 2.1e-05 s⁻¹ and the kon worked out at 1.6e+06 M⁻¹ s⁻¹. For the same molecule, in experiment [4], the Kd came out at 0.0045 nM, the off-rate (koff) amounted to 1.3e-05 s⁻¹ and the kon was 2.8e+06 M⁻¹ s⁻¹. The 50% inhibitory concentration (IC50) in experiment [5] was determined as 9.2 nM.
